Experimental data: publication PMC5865150, “Structure and evolution of the Fam20 kinases” (Nature Communications, 2018)

B2: purified human Fam20C (residues 63-584) of the solution studies (domain or fragment, UniProt Q8IXL6 63-584, looked up)
chain: VRGRPGEPPAASSAAGDAGWPNKHTLRILQDFSSDPSSNLSSHSLEKLPPAAEPAERALRGRDPGALRPHDPAHRPLLRDPGPRRSESPPGPGGDASLLARLFEHPLYRVAVPPLTEEDVLFNVNSDTRLSPKAAENPDWPHAGAEGAEFLSPGEAAVDSYPNWLKFHIGINRYELYSRHNPAIEALLHDLSSQRITSVAMKSGGTQLKLIMTFQNYGQALFKPMKQTREQETPPDFFYFSDYERHNAEIAAFHLDRILDFRRVPPVAGRMVNMTKEIRDVTRDKKLWRTFFISPANNICFYGECSYYCSTEHALCGKPDQIEGSLAAFLPDLSLAKRKTWRNPWRRSYHKRKKAEWEVDPDYCEEVKQTPPYDSSHRILDVMDMTIFDFLMGNMDRHHYETFEKFGNETFIIHLDNGRGFGKYSHDELSILVPLQQCCRIRKSTYLRLQLLAKEEYKLSLLMAESLRGDQVAPVLYQPHLEALDRRLRVVLKAVRDCVERNGLHSVVDDDLDTEHRAASAR
notes: human Fam20C, residues 63-584; otherwise the same construct as m2 and m8; also called WT Fam20C; hsFam20C; source: High Five insect cells (baculovirus), conditioned medium, purified

Tests used:
[1] = target: B2; experiment: SEC; Fam20A mutants with human Fam20C; tetramer formation followed (Supplementary Fig. 5D); settings: both partners purified
[2] = target: the molecule itself; experiment: AUC; purified Fam20C alone; oligomerises in a concentration-dependent manner; ~1 mg per ml
[3] = target: the molecule itself; experiment: not stated; ceFam20 (WT or F260A/P263G) in solution (Supplementary Fig. 3C)

B1: Fam20A E299G/I300S (domain or fragment, human, UniProt Q96MK3 69-529, looked up)
chain: HNFSRTEPRTEPAGGSHSGSSSKLQALFAHPLYNVPEEPPLLGAEDSLLASQEALRYYRRKVARWNRRHKMYREQMNLTSLDPPLQLRLEASWVQFHLGINRHGLYSRSSPVVSKLLQDMRHFPTISADYSQDEKALLGACDCTQIVKPSGVHLKLVLRFSDFGKAMFKPMRQQRDEETPVDFFYFIDFQRHNAEIAAFHLDRILDFRRVPPTVGRIVNVTKEILEVTKNGSLQSVFFVSPASNVCFFAKCPYMCKTEYAVCGNPHLLEGSLSAFLPSLNLAPRLSVPNPWIRSYTLAGKEEWEVNPLYCDTVKQIYPYNNSQRLLNVIDMAIFDFLIGNMDRHHYEMFTKFGDDGFLIHLDNARGFGRHSHDEISILSPLSQCCMIKKKTLLHLQLLAQADYRLSDVMRESLLEDQLSPVLTEPHLLALDRRLQTILRTVEGCIVAHGQQSVIVDGPVEQ
notes: human Fam20A, residues 69-529; The mutations create a site for N-linked glycosylation (Asn298-Gly299-Ser300); The limits are those of the only insect-cell Fam20A construct told in the methods; source: High Five insect cells (baculovirus), conditioned medium, purified as the WT protein
B1: binds [1].

With B2 the “stoichiometry N” value [2] was 2.

B3: ceFam20 (Fam20C ortholog of Caenorhabditis elegans) (enzyme)
chain: SLPHQPIPPSLGEKDLSDPFNFLFSSNKITLRKLYDLTKNVDFDQLRQNECKKNITLSKFWEKSEQRNVPEDDNWERFYSNIGSCSVYSDDQMIDNLLHDLNTSPIKHVHIMDGGTQVKFVFTFKNDKQAVFKPMRFGRDYESDPNHFYFSDFERHHAEIATFHLDRVLGFRRAIPTVGRVLNMTTELFEKAEKKLKKTFFFSPAKNFCFVSRCDYYCDTTHAICGLPDMKEGSVQVFLPDESAVPRKHNRSPYRRTYSKKNQVAEWQSSMNYCTDKVKTKRQYAHGRRLLDLVDIHILDYLIGNQDRHHFESFNVFNDLPSYAIHLDHGRAFGRSDFDDDDIILPLRQCCILRPSTFQTLMNFYSTPKSLTKALHESLSKDPAHPILAYKHYPAMERRLAKIMSHILECFESRGVAEVLVAEYNNPDVSDAEQNDEEQSEEHQDKKDDKKTV
notes: C. elegans Fam20 (ceFam20)
In the case of B3, the “stoichiometry N” value [3] is reported as 2.
